Experimental data reported in patent publication US20200157223A1 (SHANGHAI JMT BIO TECHNOLOGY, published 2020).

What was measured:
[1] = biological target: T1, CD47-His (12283-H08H-200, Sino Biological) (human, UniProt Q08722 19-139); test: ELISA on coated CD47-His
T1 construct: Bought protein coated on ELISA plates; also called CD47 antigen; human CD47 (protein level); not shown: His tag

[2] = biological target: T2, CD47 on the cell surface (A431, Raji, SKBR-3, NCI-H441, NK92MI-CD16a cells) (human, UniProt Q08722 19-323); test: flow cytometry on NCI-H441 cells
T2 construct: whole, on cells; also called CD47 antigen; human CD47 (cellular level)

[3] = biological target: T2, CD47 on the cell surface (A431, Raji, …); test: flow cytometry on A431 cells (no CD20)
[4] = biological target: T2, CD47 on the cell surface (A431, Raji, …); test: flow cytometry on Raji cells
[5] = biological target: T2, CD47 on the cell surface (A431, Raji, …); test: flow cytometry on A431 cells
[6] = biological target: T2, CD47 on the cell surface (A431, Raji, …); test: flow cytometry on SKBR-3 cells
[7] = biological target: T2, CD47 on the cell surface (A431, Raji, …); test: flow cytometry on IFN-γ-stimulated NCI-H441 cells
[8] = biological target: T2, CD47 on the cell surface (A431, Raji, …); test: cell-based or functional assay

B1: Anti-CD20 mAb (Ofatumumab) (antibody, human IgG1, kappa)
heavy: not shown
light: not shown
notes: also called Anti-CD20 (Ofatumumab)
binding result [1]: no binding
Maximum average fluorescence intensity [2]: 3500
binding result [3]: no binding

B2: Anti-CD47 mAb (Hu5F9-G4) (antibody, human IgG4 S228P, kappa)
heavy: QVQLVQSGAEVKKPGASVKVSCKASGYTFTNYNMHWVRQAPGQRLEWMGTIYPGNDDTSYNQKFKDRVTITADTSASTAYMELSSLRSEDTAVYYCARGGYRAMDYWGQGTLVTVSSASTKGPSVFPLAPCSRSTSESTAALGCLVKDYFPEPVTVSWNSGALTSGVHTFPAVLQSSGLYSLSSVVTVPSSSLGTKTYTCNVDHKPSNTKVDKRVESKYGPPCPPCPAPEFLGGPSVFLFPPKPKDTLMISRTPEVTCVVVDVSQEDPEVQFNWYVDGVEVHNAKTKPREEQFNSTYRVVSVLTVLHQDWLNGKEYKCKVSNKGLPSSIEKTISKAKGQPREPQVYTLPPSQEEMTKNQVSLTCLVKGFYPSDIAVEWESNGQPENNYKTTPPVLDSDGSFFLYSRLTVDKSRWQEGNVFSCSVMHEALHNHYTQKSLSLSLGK
light: DIVMTQSPLSLPVTPGEPASISCRSSQSIVYSNGNTYLGWYLQKPGQSPQLLIYKVSNRFSGVPDRFSGSGSGTDFTLKISRVEAEDVGVYYCFQGSHVPYTFGQGTKLEIKRTVAAPSVFIFPPSDEQLKSGTASVVCLLNNFYPREAKVQWKVDNALQSGNSQESVTEQDSKDSTYSLSSTLTLSKADYEKHKVYACEVTHQGLSSPVTKSFNRGEC
notes: also called anti-CD47 antibody; Hu5F9-64
EC50 [1]: 0.00544 µg/mL
EC50 [4]: 0.258 nM
EC50 [5]: 0.865 nM
EC50 [6]: 0.456 nM
EC50 [2]: 0.286 nM
Maximum average fluorescence intensity [2]: 120000
EC50 [7]: 0.387 nM

B3: Anti-EGFR-Fc1-D1-Fc2 (bispecific antibody, human IgG1, kappa)
heavy: not shown
light: EIVLTQSPDFQSVTPKEKVTITCRASQSIGTNIHWYQQKPDQSPKLLIKYASESISGIPSRFSGSGSGTDFTLTINSLEAEDAATYYCQQNNEWPTSFGQGTKLEIKRTVAAPSVFIFPPSDEQLKSGTASVVCLLNNFYPREAKVQWKVDNALQSGNSQESVTEQDSKDSTYSLSSTLTLSKADYEKHKVYACEVTHQGLSSPVTKSFNRGEC
chain: not shown
notes: Knobs-into-holes heterodimer; left arm is the JMT101 half antibody; also called Anti-EGFR-Fc1-D1-Fe2
toxic side effects caused by NK cells (ADCC on NK92MI-CD16a cells), reduction against the D1^m proteins [8]: ≥ 1000 fold
EC50 [1]: 0.0939 µg/mL

B4: Anti-EGFR-Fc1-D1^m-Fc2 (bispecific antibody, human IgG1, kappa)
heavy: not shown
light: B3 light
chain: not shown
notes: Knobs-into-holes heterodimer
binding result [1]: binds

B5: Anti-EGFR-Fc1-D1-D2-Fc2 (bispecific antibody, human IgG1, kappa)
heavy: not shown
light: B3 light
chain: not shown
toxic side effects caused by NK cells (ADCC on NK92MI-CD16a cells), reduction against the D1^m proteins [8]: ≥ 1000 fold

B6: Anti-EGFR-Fc1-D1-D2-D3-Fc2 (bispecific antibody, human IgG1, kappa)
heavy: not shown
light: B3 light
chain: not shown
toxic side effects caused by NK cells (ADCC on NK92MI-CD16a cells), reduction against the D1^m proteins [8]: ≥ 1000 fold

B7: Anti-EGFR-Fc1-D1^m-D2-Fc2 (bispecific antibody, human IgG1, kappa)
heavy: not shown
light: B3 light
chain: not shown
notes: Knobs-into-holes heterodimer
binding result [1]: binds

B8: Obi-Fc1-D1-Fc2 (bispecific antibody)
heavy: not shown
light: DIVMTQTPLSLPVTPGEPASISCRSSKSLLHSNGITYLYWYLQKPGQSPQLLIYQMSNLVSGVPDRFSGSGSGTDFTLKISRVEAEDVGVYYCAQNLELPYTFGGGTKVEIKRTVAAPSVFIFPPSDEQLKSGTASVVCLLNNFYPREAKVQWKVDNALQSGNSQESVTEQDSKDSTYSLSSTLTLSKADYEKHKVYACEVTHQGLSSPVTKSFNRGEC
chain: not shown
toxic side effects caused by NK cells (ADCC on NK92MI-CD16a cells), reduction against the D1^m proteins [8]: ≥ 1000 fold

B9: Obi-Fc1-D1-D2-Fc2 (bispecific antibody)
heavy: not shown
light: B8 light
chain: not shown
toxic side effects caused by NK cells (ADCC on NK92MI-CD16a cells), reduction against the D1^m proteins [8]: ≥ 1000 fold

B10: Obi-Fc1-D1-D2-D3-Fc2 (bispecific antibody)
heavy: not shown
light: B8 light
chain: not shown
toxic side effects caused by NK cells (ADCC on NK92MI-CD16a cells), reduction against the D1^m proteins [8]: ≥ 1000 fold

B11: Anti-CD20 mAb (Obinutuzumab) (antibody, human IgG1, kappa)
heavy: not shown
light: B8 light
notes: also called Anti-CD20 (Obinutuzumab)
binding result [3]: no binding

B12: Anti-EGFR mAb (JMT101) (antibody, human IgG1, kappa, V domains shown)
VH: QVQLQESGPGLVKPSETLSLTCTVSGFSLSNYDVHWVRQAPGKGLEWLGVIWSGGNTDYNTPFTSRLTISVDTSKNQFSLKLSSVTAADTAVYYCARALDYYDYEFAYWGQGTLVTVSS
VL: EIVLTQSPDFQSVTPKEKVTITCRASQSIGTNIHWYQQKPDQSPKLLIKYASESISGIPSRFSGSGSGTDFTLTINSLEAEDAATYYCQQNNEWPTSFGQGTKLEIKR
notes: Humanized anti-EGFR monoclonal antibody
binding result [1]: no binding
